Measured values taken from PMC5941314.

Legend:
[1] = target: Ube2T (Homo sapiens) (UniProt Q9NPD8); conditions: cited from earlier work
[2] = target: ZNRF1^CTD (C-terminal domain of ZNRF1, residues 139–227) (UniProt Q8ND25); test: ITC; ZNRF1 construct (10–30 µM) in the cell, E2 in the syringe; 25°C; 20 mM sodium phosphate pH 8.0, 150 mM NaCl; single site model
Chain of ZNRF1^CTD (C-terminal domain of ZNRF1, residues 139–227) (Q8ND25 139-227): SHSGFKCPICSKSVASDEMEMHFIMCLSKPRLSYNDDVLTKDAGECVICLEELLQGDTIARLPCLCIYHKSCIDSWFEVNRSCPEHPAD

Chain of Ube2D2 (P62837 whole entry): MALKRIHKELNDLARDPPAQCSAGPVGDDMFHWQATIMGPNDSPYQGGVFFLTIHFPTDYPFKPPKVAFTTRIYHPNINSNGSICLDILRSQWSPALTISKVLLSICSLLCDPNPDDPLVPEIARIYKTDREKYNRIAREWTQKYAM
Chain of Ube2W (Q96B02 whole entry): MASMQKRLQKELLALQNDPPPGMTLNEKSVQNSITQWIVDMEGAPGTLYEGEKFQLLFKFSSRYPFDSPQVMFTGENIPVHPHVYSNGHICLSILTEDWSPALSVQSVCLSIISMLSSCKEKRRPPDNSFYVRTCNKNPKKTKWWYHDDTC
Chain of Ube2T (Homo sapiens) (Q9NPD8 whole entry, the tested form may be a part): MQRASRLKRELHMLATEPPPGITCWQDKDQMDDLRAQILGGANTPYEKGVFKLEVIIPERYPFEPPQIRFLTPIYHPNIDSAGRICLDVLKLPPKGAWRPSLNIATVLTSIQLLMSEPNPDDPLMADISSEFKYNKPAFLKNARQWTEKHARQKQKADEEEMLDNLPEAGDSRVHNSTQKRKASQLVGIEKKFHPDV
Chain of FANCL (Q9NW38 2-375): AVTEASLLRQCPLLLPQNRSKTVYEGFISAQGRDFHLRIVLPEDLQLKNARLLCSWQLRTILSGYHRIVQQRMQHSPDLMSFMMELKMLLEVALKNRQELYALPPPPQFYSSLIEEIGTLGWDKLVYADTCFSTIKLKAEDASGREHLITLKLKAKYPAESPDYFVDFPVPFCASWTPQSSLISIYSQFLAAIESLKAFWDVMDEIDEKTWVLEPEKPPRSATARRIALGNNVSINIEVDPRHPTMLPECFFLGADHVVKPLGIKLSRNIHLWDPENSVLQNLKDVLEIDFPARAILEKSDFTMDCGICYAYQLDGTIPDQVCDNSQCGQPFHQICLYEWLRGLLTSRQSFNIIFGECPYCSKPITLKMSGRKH

Row | Substance | Kd [1] [nM] | dH [2] [kcal/mol] | stoichiometry N [2]
1 | FANCL (from UniProt Q9NW38) | 500 | – | –
2 | Ube2D2 (from UniProt P62837 1-147) (enzyme) | – | -7.79 | 0.963
3 | Ube2W (from UniProt Q96B02 1-151) (enzyme) | – | -8.85 | 0.906
